Test results from US8703460B2, “Method for the production of an additive for the enzymatic decomposition of mycotoxins, additive, and use thereof” (Erber Aktiengesellschaft, priority 2008, dated 2014).

B1: aminotransferase ID No. 19: HFB1 aminotransferase encoded by fumI (sequence ID No. 18) (protein, listed as Sphingopyxis sp.)
chain: MANGTRQKDLRERAERVIPGGMYGHESTRLLPPEFPQFFRRALGARIWDADEQPYIDYMCAYGPNLLGYRQSEIEAAADAQRLLGDTMTGPSEIMVNLAEAFVGMVRHADWAMFCKNGSDATSTAMVLARAHTGRKTILCAKGAYHGASPWNTPHTAGILASDRVHVAYYTYNDAQSLSDAFKAHDGDIAAVFATPFRHEVFEDQALAQLEFARTARKCCDETGALLVVDDVRAGFRVARDCSWTHLGIEPDLSCWGKCFANGYPISALLGSNKARDAARDIFVTGSFWFSAVPMAAAIETLRIIRETPYLETLIASGAALRAGLEAQSQRHGLELKQTGPAQMPQIFFADDPDFRIGYAWAAACLKGGVYVHPYHNMFLSAAHTVDDVTETLEATDRAFSAVLRDFASLQPHPILMQLAGA
modifications: Seq ID 19 (FumI)
B2: aminotransferase ID No. 25: HFB1 aminotransferase encoded by sequence ID No. 24 (protein, listed as Caulobacter sp.)
chain: MELSRQRDQALRERAQAVIPGGMYGHESTYLMPEGTPQFFSRGKGARLWDADGNEYVDYMCAYGPNLLGYGFEPVEAAAAAQQARGDTLTGPSEVMVQLAEDFVAQISHADWAMFCKNGTDATSMAMVIARAHTGRKTILCAKGAYHGAAPWCTPILAGTLPEDRAFVVYYDYNDAQSLVDAFEAHQDDVAAIFATPHRHEVFSDQIDPDPEYAASVRALCDKSGALLVVDEVRAGFRIARDCSWAKIGVAPDLSTWGKCFANGYPISAVLGGEKVRSAAKAVYVTGSFWFSATPMAAAVETLKQIRETDYLERINAAGTRLREGLQQQAAHNGFTLRQTGPVSMPQVLFEEDPDFRVGYGWVRECLKRGVYFSPYHNMFLSAAHSEADLAKTLAATGDAFVELRAKLPSLEIHQPLLALRAA
modifications: Seq ID 25

Assays:
piglets = assay: Feeding test with piglets; type: in vivo, pigs; details: Positive control: 4-5.5 ppm fumonisin B1 in feed, no enzyme
Description: The test was performed in a test stable with 12 stalls for 10 animals each. The stable was equipped with a slatted floor, pan troughs and a computer-controlled feeding system. The automats were arranged along the stall walls. Every day, the stable climate was automatically recorded, and the temperature was set according to the standard recommendations for piglet breeding.
For this test, 120 mixed-sex weaned pigs (age: about 4 weeks, average setting weight: 8.21 kg) were used. Each piglet was earmarked and individually weighed. The 120 piglets were randomly distributed among 12 stalls. All piglets came from the Austrian Breeding Program ÖHYB (=(large white×landrace)×Pietrain).
Immediately upon weaning, the piglets were fed with a starter feed for two days, after this settling-in period the changeover to the test feed took place. Feeding was effected in two phases: Weaning phase days 1-14, breeding phase days 15-42. The test feed was mixed individually per stall via the spotmix feeding installation and allotted in dry form twice a day as a function of the number of piglets, weight development and feed consumption. Water was available ad libitum. The 12 stalls were divided into four different application groups at three repetitions each and received the following admixtures in the above-described feed: […]

[1] = type: biochemical; details: corn mash after carboxylesterase treatment; FIG. 5
Description: Samples of corn mash for the production of bioethanol were taken and incubated at 30 to 65° C. under stirring, the degradation of fumonisin B1 having been investigated after the addition of 770 units of carboxylesterase ID No. 9 per cubic meter of mash under stirring (stirring time in minutes). Samples were inactivated by boiling-up after having been taken and subsequently centrifuged for analysis, and an aliquot of the supernatant was evaporated. The residue was taken up in 200 μl sample buffer containing C^13-labelled internal fumonisin standard, shaken for 1.5 min, centrifuged off, and then subjected to LC-MS-analysis.

[2] = Catalytic activity of HFB1 aminotransferase in E. coli lysate; type: biochemical; details: 25° C.; for degradation of the hydrolyzed fumonisin to 2-keto-HFB1: cosubstrate added (α-keto acid e.g. pyruvic acid, or oxalacetate); for reduction of the hydrolyzed FB1 concentration: no cosubstrate, 50 mM sodium phosphate buffer
Description: Sequences ID Nos. 18 and 24 were cloned using standard procedures and expressed in E. coli under the control of a bacteriophage T7 promoter. The bacterial cells were collected, resuspended in 50 mM sodium phosphate buffer and lyzed under ultrasonic action. Hydrolyzed fumonisin was added, and the samples were incubated at 25° C. Samples were taken at time intervals and analyzed by HPLC-MS/MS. No reduction of the hydrolyzed FB1 concentration was observed. […] This substance is totally harmless for mammals.

Molecule	respiratory problems observed (piglets)	Final weight (average, kg) (piglets; 42 days)	degradation of hydrolyzed fumonisin HFB1 [1]	degradation of the hydrolyzed fumonisin to 2-keto-HFB1 [2]	reduction of the hydrolyzed FB1 concentration [2]
CCCC[C@@H](C)[C@@H](OC(=O)C[C@@H](CC(=O)O)C(=O)O)[C@H](C[C@@H](C)C[C@H](O)CCCC[C@@H](O)C[C@H](O)[C@H](C)N)OC(=O)C[C@@H](CC(=O)O)C(=O)O [fumonisin B1]	almost half of the animals	24.77 kg			
B1			completely degraded	complete degradation	No reduction
B2				complete degradation	No reduction
